Laboratory results from patent US20230303623A1, “PEPTIDES AND METHODS OF USE” (REALTA LIFE SCIENCES, INC., priority 2020, published 2023).
Entries after “also recorded” stand apart in the source; their conditions may differ.

What was measured:
C1q = biological target: T1, C1q (Homo sapiens, UniProt P02745+P02746+P02747); assay: C1q binding ELISA-type assay; settings: compared to parent peptide
T1 construct: purchased Complement Technology (Tyler, TX)
Description: The C1q binding assay was performed as previously described. Briefly, an Immunlon-2 HB ELISA plate was coated with 1 μg/ml C1q in bicarbonate buffer overnight at 4° C. The plates were washed with PBS-T (phosphate buffered saline+0.1% Tween) and then blocked with 1% gelatin/PBS for 2 hours at room temperature. After washing, the plates were incubated with the peptides starting at 2.5 mg/ml and then serially diluted in 1% gelatin/PBS for 1 hour at room temperature followed by washing. Plates were then probed with rabbit antibody raised against the lead peptide […] (SEQ ID NO: 2) that lacked PEGylation at 1:1000 in 1% gelatin/PBS for 1 hour at room temperature followed by a goat anti-rabbit HRP (Sigma Aldrich, St Louis, MO) at 1:1,000 in 1% gelatin/PBS for 1 hour at room temperature with a washing step in between. After addition of TMB substrate solution to the wells, the reaction was stopped using 1N H2SO4, and the plate read on a BioTek Synergy HT plate reader at 450 nm.
The astrovirus capsid protein and the PIC1 molecules derived from it inhibit classical complement pathway activation by binding to the pattern recognition molecule C1q. The inventors next tested peptide variant binding to C1q in an ELISA-type assay in which C1q is used as the capture substrate and bound peptide detected with a rabbit polyclonal antibody against the peptide portion of PA-dPEG24 ([…]-d24; SEQ ID NO: 3). Binding curves were derived for the stapled and D-amino acid peptides based on the PA-I8Sar and PA-C9Sar (FIG. 5A-5C) backbone, from which half-maximal binding concentrations were calculated (FIGS. 2A and B, respectively). […] For the peptides based on the PA-C9Sar backbone, C1q was bound to a greater degree than the parent peptide (FIG. 2B).

[1] = Total Antioxidant Capacity (TAC) assay; settings: highest peptide concentration 1.5 mM; compared to parent peptide
Procedure, shortened: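 Copper(II)-to-copper(I) reduction kit used per manufacturer to measure antioxidant capacity of PIC1 peptide variants over a concentration range; activity reported at the highest peptide concentration, 1.5 mM.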

VEGF [2] = biological target: T2, VEGF (Homo sapiens, UniProt P15692); assay: VEGF binding ELISA plate-based assay; settings: peptides 1 mg/ml
T2 construct: Promega (bioassay)
T2 sequence (P15692 27-191 isoform P15692-4): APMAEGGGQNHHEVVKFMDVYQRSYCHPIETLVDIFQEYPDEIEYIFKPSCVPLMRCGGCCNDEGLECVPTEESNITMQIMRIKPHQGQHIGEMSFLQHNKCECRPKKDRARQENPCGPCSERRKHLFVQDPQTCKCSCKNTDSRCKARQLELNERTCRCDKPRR
Description: A fixed amount of PIC1 peptides (1 mg/ml) were added to the plates followed by a rabbit polyclonal antibody that recognizes the peptides and then a secondary anti-rabbit antibody conjugated with HRP. The plate was then developed by addition of TMB as the substrate for the colorimetric assay.
(§1) Angiogenesis, or the formation of new blood vessels from the established vasculature, is an essential element in tumor growth and metastasis formation. Inhibiting tumor angiogenesis is considered a major therapeutic strategy in oncology. […] The bioluminescent signal is detected in a luminometer.

VEGF [3] = biological target: T2, VEGF; assay: VEGF Bioassay (Promega), VEGF signaling via VEGFR-2 (KDR); assay type: cell-based
Text: Luminescence was detected in luminometer plate reader.
as §1

CTLA-4 = biological target: T3, CTLA-4 (Homo sapiens, UniProt P16410); assay: CTLA-4 Blockade Bioassay (Promega); assay type: cell-based; set-up: host or cells: Jurkat T cells (CTLA-4 effector cells) co-cultured with aAPC/Raji cells; settings: increasing concentrations; listed as RLS-0122
T3 sequence (P16410 36-223): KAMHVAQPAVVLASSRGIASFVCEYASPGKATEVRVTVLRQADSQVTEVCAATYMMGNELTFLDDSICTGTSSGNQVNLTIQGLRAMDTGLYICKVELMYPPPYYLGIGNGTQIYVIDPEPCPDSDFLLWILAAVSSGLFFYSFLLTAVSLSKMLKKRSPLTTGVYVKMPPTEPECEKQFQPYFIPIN
Description: CTLA-4 effector cells were incubated with aAPC/Raji Cells in the absence or presence of increasing concentrations of anti-CTLA-4 antibody (positive control), RLS-0122, RLS-0150, RLS-0154, RLS-0164 and RLS-0168 and RLS-0088 (negative control). Luminescence was detected in luminometer plate reader. The drop-off in signal with the test peptides at high concentrations is due to cell death as a result of peptide buffer effects on the cells.
To assess if PIC1 peptides could block CTLA-4 inhibitory activity in a cell-based assay, select peptides were screened in the CTLA-4 Blockade Bioassay (Promega). This bioluminescent cell-based assay can be used to measure the potency and stability of molecules targeting CTLA-4 and consists of two genetically engineered cell lines: CTLA-4 effector cells: Jurkat T cells expressing human CTLA-4 and a luciferase reporter driven by a native promoter which responds to TCR/CD28 activation and aAPC/Raji Cells: Raji cells expressing an engineered cell surface protein designed to activate cognate TCRs in an antigen-independent manner and endogenously expressing CTLA-4 ligands CD80 and CD86. When the two cell types are co-cultured, CTLA-4 competes with CD28 for their shared ligands, CD80 and CD86 and thus inhibits CD28 pathway activation and promoter-mediated luminescence. Addition of a molecule that blocks the interaction of CTLA-4 with its ligands CD80 and CD86 results in promoter-mediated luminescence.

T1 sequence (P02745 23-245): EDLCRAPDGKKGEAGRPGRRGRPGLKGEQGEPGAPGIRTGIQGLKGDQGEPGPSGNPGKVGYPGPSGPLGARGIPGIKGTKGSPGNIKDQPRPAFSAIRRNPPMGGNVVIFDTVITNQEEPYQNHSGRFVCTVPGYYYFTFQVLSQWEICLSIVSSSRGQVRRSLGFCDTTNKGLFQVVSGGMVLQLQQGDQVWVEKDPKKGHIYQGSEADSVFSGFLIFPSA
T1 sequence (P02746 28-253): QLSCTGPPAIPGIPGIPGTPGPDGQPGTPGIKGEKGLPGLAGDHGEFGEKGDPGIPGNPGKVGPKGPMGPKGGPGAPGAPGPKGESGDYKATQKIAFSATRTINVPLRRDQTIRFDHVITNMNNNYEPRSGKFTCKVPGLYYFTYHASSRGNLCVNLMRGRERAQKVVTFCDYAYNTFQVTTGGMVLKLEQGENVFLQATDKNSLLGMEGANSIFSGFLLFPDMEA
T1 sequence (P02747 29-245): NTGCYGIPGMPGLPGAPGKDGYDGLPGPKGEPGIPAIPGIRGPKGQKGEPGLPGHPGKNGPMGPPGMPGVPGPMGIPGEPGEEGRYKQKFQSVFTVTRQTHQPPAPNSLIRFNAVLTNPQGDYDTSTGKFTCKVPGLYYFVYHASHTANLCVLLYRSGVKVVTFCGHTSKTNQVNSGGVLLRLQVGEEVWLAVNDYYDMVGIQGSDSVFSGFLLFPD

IAdLILEP(Sar)CCQERAA (IALILEPXCCQERAA; D-Leu; sarcosine; MOD_RES (3)..(3) D-amino acid; MOD_RES (8)..(8) Sarcosine) [PA-0122]
binding to C1q (binding curves, half-maximal binding), in words (C1q): markedly increased binding to C1q | total antioxidant capacity, in words [1]: slight increase in total antioxidant capacity | binding to VEGF, in words (VEGF [2]): binding with high affinity | inhibition of VEGF signaling via VEGFR-2 (luminescence), in words (VEGF [3]): did not inhibit signaling | inhibition of CTLA-4 mediated cell signaling (increase in luminescence), in words (CTLA-4): showed inhibitory activity; also recorded: able to inhibit CTLA-4 mediated cell signaling
